This note sets out measurements from patent publication US20180155451A1 (published 2018).

The chains are these.
B1: GpH7-B3 variant E333_06M/GpL16-k0 (antibody, human IgG1, kappa)
heavy: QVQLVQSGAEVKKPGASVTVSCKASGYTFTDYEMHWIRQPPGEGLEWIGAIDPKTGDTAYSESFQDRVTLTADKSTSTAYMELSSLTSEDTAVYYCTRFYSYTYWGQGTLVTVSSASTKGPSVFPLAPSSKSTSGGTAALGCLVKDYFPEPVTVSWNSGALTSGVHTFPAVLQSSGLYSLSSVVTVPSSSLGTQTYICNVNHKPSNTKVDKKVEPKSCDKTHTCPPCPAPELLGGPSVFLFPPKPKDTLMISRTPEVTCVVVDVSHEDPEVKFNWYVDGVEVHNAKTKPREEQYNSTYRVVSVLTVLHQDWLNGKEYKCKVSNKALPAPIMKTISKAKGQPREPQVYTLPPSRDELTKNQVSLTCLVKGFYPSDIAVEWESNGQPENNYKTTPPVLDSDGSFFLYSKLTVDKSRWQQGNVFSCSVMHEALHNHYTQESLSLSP
light: DIVMTQSPLSLPVTPGEPASISCQASESLVHSNRNTYLHWYLQKPGQSPQLLIYKVSNRFSGVPDRFSGSGSGTDFTLKISRVEAEDVGVYYCSQNTHVPPTFGQGTKVEIERTVAAPSVFIFPPSDEQLKSGTASVVCLLNNFYPREAKVQWKVDNALQSGNSQESVTEQDSKDSTYSLSSTLTLSKADYEKHKVYACEVTHQGLSSPVTKSFNRGEC
notes: homodimerized; also called Ho Ab E333_06M
B2: GpH7-B3 variant H268_07I/GpL16-k0 (antibody, human IgG1, kappa)
heavy: not shown
light: B1 light
notes: homodimerized; also called Ho Ab H268_07I
B3: GpH7-B3 variant L328_19Q/GpL16-k0 (antibody, human IgG1, kappa)
heavy: not shown
light: B1 light
notes: homodimerized; also called Ho Ab L328_19Q
B4: GpH7-B3 variant K334_20W/GpL16-k0 (antibody, human IgG1, kappa)
heavy: not shown
light: B1 light
notes: homodimerized; also called Ho Ab K334_20W
B5: GpH7-B3 variant P238_08L/GpL16-k0 (antibody, human IgG1, kappa)
heavy: not shown
light: B1 light
notes: homodimerized; also called Ho Ab P238_08L
B6: GpH7-B3 variant I336_02A/GpL16-k0 (antibody, human IgG1, kappa)
heavy: not shown
light: B1 light
notes: homodimerized; also called Ho Ab I336_02A
B7: GpH7-B3 variant L234_10E/GpL16-k0 (antibody, human IgG1, kappa)
heavy: not shown
light: B1 light
notes: homodimerized; also called Ho Ab L234_10E; GpH7-B16/GpL16-k0
B8: GpH7-B3 variant K326_18N/GpL16-k0 (antibody, human IgG1, kappa)
heavy: not shown
light: B1 light
notes: homodimerized; also called Ho Ab K326_18N
B9: GpH7-B3 variant K334_06M/GpL16-k0 (antibody, human IgG1, kappa)
heavy: not shown
light: B1 light
notes: homodimerized; also called Ho Ab K334_06M
B10: GpH7-B3 variant L234_06M/GpL16-k0 (antibody, human IgG1, kappa)
heavy: not shown
light: B1 light
notes: homodimerized; also called Ho Ab L234_06M
B11: GpH7-B3 variant I336_10E/GpL16-k0 (antibody, human IgG1, kappa)
heavy: not shown
light: B1 light
notes: homodimerized; also called Ho Ab I336_10E
B12: GpH7-B3 variant P238_06M/GpL16-k0 (antibody, human IgG1, kappa)
heavy: not shown
light: B1 light
notes: homodimerized; also called Ho Ab P238_06M
B13: GpH7-B3 variant E333_14T/GpL16-k0 (antibody, human IgG1, kappa)
heavy: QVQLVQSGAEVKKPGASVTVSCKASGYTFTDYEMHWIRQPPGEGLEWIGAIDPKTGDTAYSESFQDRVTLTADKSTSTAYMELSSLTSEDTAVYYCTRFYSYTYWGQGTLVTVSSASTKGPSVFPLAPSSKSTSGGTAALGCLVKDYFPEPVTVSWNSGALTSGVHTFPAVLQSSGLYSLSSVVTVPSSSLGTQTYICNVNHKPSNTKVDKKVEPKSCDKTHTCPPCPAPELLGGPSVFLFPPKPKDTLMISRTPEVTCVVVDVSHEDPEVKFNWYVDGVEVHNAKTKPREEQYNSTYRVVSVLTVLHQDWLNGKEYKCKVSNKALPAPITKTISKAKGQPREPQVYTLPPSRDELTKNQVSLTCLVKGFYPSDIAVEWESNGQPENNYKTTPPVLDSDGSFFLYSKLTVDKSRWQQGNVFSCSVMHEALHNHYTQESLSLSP
light: B1 light
notes: homodimerized; also called Ho Ab E333_14T
B14: GpH7-B3 variant L328_14T/GpL16-k0 (antibody, human IgG1, kappa)
heavy: not shown
light: B1 light
notes: homodimerized; also called Ho Ab L328_14T
B15: GpH7-B3 variant L328_20W/GpL16-k0 (antibody, human IgG1, kappa)
heavy: not shown
light: B1 light
notes: homodimerized; also called Ho Ab L328_20W
B16: GpH7-B3 variant K334_10E/GpL16-k0 (antibody, human IgG1, kappa)
heavy: not shown
light: B1 light
notes: homodimerized; also called Ho Ab K334_10E
B17: GpH7-B3 variant I336_04F/GpL16-k0 (antibody, human IgG1, kappa)
heavy: not shown
light: B1 light
notes: homodimerized; also called Ho Ab I336_04F
B18: GpH7-B3 variant K326_14T/GpL16-k0 (antibody, human IgG1, kappa)
heavy: not shown
light: B1 light
notes: homodimerized; also called Ho Ab K326_14T
B19: GpH7-B3 variant L234_07I/GpL16-k0 (antibody, human IgG1, kappa)
heavy: not shown
light: B1 light
notes: homodimerized; also called Ho Ab L234_07I
B20: GpH7-B3 variant P238_03V/GpL16-k0 (antibody, human IgG1, kappa)
heavy: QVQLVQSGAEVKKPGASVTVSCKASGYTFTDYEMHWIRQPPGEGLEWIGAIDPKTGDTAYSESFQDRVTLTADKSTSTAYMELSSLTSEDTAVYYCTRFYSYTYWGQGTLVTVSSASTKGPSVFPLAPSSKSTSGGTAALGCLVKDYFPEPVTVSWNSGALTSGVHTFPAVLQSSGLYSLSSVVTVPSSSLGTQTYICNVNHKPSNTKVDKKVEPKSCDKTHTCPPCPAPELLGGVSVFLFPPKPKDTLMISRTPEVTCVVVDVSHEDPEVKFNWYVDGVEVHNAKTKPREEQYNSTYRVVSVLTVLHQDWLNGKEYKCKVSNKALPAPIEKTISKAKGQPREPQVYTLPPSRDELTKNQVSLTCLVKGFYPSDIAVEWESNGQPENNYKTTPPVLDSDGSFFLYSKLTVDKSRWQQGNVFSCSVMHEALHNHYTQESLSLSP
light: B1 light
notes: homodimerized; also called Ho Ab P238_03V
B21: GpH7-B3 variant I336_01G/GpL16-k0 (antibody, human IgG1, kappa)
heavy: not shown
light: B1 light
notes: homodimerized; also called Ho Ab I336_01G
B22: GpH7-B3 variant G236_02A/GpL16-k0 (antibody, human IgG1, kappa)
heavy: not shown
light: B1 light
notes: homodimerized; also called Ho Ab G236_02A
B23: GpH7-B3 variant H268_05P/GpL16-k0 (antibody, human IgG1, kappa)
heavy: not shown
light: B1 light
notes: homodimerized; also called Ho Ab H268_05P
B24: GpH7-B3 variant E333_07I/GpL16-k0 (antibody, human IgG1, kappa)
heavy: not shown
light: B1 light
notes: homodimerized; also called Ho Ab E333_07I
B25: GpH7-B3 variant P271_02A/GpL16-k0 (antibody, human IgG1, kappa)
heavy: not shown
light: B1 light
notes: homodimerized; also called Ho Ab P271_02A
B26: GpH7-B3 variant I336_03V/GpL16-k0 (antibody, human IgG1, kappa)
heavy: not shown
light: B1 light
notes: homodimerized; also called Ho Ab I336_03V
B27: GpH7-B3 variant P271_03V/GpL16-k0 (antibody, human IgG1, kappa)
heavy: not shown
light: B1 light
notes: homodimerized; also called Ho Ab P271_03V
B28: GpH7-B3 variant H268_20W/GpL16-k0 (antibody, human IgG1, kappa)
heavy: not shown
light: B1 light
notes: homodimerized; also called Ho Ab H268_20W
B29: GpH7-B3 variant E333_09D/GpL16-k0 (antibody, human IgG1, kappa)
heavy: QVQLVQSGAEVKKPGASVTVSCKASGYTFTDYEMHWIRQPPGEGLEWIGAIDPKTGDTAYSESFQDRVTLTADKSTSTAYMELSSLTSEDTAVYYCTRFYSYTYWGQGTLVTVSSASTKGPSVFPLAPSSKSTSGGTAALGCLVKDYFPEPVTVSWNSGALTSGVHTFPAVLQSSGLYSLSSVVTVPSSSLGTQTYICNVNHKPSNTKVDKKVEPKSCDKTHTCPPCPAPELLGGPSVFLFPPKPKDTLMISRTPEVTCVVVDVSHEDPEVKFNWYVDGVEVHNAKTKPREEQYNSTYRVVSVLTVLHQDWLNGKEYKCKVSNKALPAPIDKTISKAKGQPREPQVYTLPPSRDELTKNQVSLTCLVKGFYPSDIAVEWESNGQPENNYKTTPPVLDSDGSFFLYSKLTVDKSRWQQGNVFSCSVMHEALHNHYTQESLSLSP
light: B1 light
notes: homodimerized; also called Ho Ab E333_09D
B30: GpH7-B3 variant L328_03V/GpL16-k0 (antibody, human IgG1, kappa)
heavy: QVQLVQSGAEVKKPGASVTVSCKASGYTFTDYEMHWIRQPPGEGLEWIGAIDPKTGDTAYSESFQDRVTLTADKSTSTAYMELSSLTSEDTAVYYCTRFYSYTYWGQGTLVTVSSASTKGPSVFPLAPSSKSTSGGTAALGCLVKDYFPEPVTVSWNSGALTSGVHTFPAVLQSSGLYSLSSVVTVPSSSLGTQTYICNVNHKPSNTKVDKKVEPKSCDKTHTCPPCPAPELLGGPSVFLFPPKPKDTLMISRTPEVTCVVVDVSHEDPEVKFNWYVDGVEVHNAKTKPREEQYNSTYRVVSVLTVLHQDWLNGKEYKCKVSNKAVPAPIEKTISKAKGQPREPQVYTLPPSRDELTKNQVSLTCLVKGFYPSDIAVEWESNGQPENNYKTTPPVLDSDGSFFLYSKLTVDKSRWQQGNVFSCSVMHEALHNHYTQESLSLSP
light: B1 light
notes: homodimerized; also called Ho Ab L328_03V
B31: GpH7-B3 variant H268_12R/GpL16-k0 (antibody, human IgG1, kappa)
heavy: not shown
light: B1 light
notes: homodimerized; also called Ho Ab H268_12R
B32: GpH7-B3 variant K334_12R/GpL16-k0 (antibody, human IgG1, kappa)
heavy: not shown
light: B1 light
notes: homodimerized; also called Ho Ab K334_12R
B33: GpH7-B3 variant P238_04F/GpL16-k0 (antibody, human IgG1, kappa)
heavy: not shown
light: B1 light
notes: homodimerized; also called Ho Ab P238_04F
B34: GpH7-B3 variant L234_04F/GpL16-k0 (antibody, human IgG1, kappa)
heavy: not shown
light: B1 light
notes: homodimerized; also called Ho Ab L234_04F
B35: GpH7-B3 variant L328_10E/GpL16-k0 (antibody, human IgG1, kappa)
heavy: not shown
light: B1 light
notes: homodimerized; also called Ho Ab L328_10E
B36: GpH7-B3 variant L234_15Y/GpL16-k0 (antibody, human IgG1, kappa)
heavy: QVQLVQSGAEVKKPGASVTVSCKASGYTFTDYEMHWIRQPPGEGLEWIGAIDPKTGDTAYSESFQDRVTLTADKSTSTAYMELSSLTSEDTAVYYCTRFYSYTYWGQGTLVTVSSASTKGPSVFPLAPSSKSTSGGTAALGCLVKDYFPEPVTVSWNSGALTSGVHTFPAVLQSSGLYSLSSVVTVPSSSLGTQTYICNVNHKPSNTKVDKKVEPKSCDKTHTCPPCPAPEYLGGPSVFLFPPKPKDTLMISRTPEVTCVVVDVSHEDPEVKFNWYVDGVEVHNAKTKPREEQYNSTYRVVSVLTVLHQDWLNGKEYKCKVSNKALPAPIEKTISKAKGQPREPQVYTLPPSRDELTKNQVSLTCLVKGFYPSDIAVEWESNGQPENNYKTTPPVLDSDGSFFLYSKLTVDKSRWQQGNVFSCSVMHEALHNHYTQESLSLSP
light: B1 light
notes: homodimerized; also called Ho Ab L234_15Y; GpH7-B3-01-15Y/GpL16-k0
B37: GpH7-B3 variant E333_11K/GpL16-k0 (antibody, human IgG1, kappa)
heavy: not shown
light: B1 light
notes: homodimerized; also called Ho Ab E333_11K
B38: GpH7-B3 variant I336_06M/GpL16-k0 (antibody, human IgG1, kappa)
heavy: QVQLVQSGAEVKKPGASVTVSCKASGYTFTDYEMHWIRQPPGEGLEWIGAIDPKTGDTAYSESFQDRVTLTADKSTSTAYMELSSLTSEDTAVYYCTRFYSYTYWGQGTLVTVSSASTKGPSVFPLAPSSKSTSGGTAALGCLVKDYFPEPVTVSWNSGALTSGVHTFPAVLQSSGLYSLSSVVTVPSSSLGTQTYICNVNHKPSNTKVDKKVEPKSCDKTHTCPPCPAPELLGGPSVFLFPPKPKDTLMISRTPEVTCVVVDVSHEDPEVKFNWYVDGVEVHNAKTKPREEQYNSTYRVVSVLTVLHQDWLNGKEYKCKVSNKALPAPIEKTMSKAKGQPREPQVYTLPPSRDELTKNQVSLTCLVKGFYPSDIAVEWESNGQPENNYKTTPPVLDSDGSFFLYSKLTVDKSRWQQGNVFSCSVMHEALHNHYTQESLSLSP
light: B1 light
notes: homodimerized; also called Ho Ab I336_06M
B39: GpH7-B3 variant I332_12R/GpL16-k0 (antibody, human IgG1, kappa)
heavy: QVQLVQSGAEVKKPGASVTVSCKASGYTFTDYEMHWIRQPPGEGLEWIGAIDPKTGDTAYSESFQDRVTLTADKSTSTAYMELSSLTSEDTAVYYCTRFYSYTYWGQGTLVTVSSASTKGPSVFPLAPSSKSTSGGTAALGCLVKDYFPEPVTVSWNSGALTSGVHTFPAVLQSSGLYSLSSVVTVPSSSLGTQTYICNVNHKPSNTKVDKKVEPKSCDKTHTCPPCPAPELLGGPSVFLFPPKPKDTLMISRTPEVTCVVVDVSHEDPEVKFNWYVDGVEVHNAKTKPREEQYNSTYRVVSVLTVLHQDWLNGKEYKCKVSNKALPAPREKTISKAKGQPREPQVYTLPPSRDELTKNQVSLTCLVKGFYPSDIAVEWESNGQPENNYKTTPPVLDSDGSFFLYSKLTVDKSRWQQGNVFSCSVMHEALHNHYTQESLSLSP
light: B1 light
notes: homodimerized; also called Ho Ab I332_12R
B40: GpH7-B3 variant H268_08L/GpL16-k0 (antibody, human IgG1, kappa)
heavy: not shown
light: B1 light
notes: homodimerized; also called Ho Ab H268_08L
B41: GpH7-B3 variant H268_02A/GpL16-k0 (antibody, human IgG1, kappa)
heavy: not shown
light: B1 light
notes: homodimerized; also called Ho Ab H268_02A
B42: GpH7-B3 variant H268_14T/GpL16-k0 (antibody, human IgG1, kappa)
heavy: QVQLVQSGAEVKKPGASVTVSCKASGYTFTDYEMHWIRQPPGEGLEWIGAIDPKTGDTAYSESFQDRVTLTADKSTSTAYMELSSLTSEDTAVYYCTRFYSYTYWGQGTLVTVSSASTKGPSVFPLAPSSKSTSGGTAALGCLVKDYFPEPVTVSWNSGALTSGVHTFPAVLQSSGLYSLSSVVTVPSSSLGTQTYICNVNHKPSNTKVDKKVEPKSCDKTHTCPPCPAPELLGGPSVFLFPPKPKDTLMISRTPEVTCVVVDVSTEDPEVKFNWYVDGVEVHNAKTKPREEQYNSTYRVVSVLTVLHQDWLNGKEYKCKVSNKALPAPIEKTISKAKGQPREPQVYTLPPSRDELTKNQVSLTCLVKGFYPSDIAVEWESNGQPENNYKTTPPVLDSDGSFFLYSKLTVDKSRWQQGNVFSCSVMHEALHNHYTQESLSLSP
light: B1 light
notes: homodimerized; also called Ho Ab H268_14T
B43: GpH7-B3 variant E333_16H/GpL16-k0 (antibody, human IgG1, kappa)
heavy: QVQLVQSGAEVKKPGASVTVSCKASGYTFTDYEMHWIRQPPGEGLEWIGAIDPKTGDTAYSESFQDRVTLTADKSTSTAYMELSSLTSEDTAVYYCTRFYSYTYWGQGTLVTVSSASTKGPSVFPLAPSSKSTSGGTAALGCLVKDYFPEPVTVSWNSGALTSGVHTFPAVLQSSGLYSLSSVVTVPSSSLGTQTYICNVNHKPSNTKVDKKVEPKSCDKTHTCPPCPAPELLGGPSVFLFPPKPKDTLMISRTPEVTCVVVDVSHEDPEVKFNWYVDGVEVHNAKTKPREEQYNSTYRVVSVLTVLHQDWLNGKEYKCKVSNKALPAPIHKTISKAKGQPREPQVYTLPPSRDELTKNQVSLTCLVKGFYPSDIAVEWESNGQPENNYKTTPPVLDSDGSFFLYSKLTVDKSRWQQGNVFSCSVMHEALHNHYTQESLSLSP
light: B1 light
notes: homodimerized; also called Ho Ab E333_16H
B44: GpH7-B3 variant P238_10E/GpL16-k0 (antibody, human IgG1, kappa)
heavy: not shown
light: B1 light
notes: homodimerized; also called Ho Ab P238_10E
B45: GpH7-B3 variant E333_08L/GpL16-k0 (antibody, human IgG1, kappa)
heavy: not shown
light: B1 light
notes: homodimerized; also called Ho Ab E333_08L
B46: GpH7-B3 variant K326_15Y/GpL16-k0 (antibody, human IgG1, kappa)
heavy: not shown
light: B1 light
notes: homodimerized; also called Ho Ab K326_15Y
B47: GpH7-B3 variant K326_12R/GpL16-k0 (antibody, human IgG1, kappa)
heavy: not shown
light: B1 light
notes: homodimerized; also called Ho Ab K326_12R
B48: GpH7-B3 variant G236_20W/GpL16-k0 (antibody, human IgG1, kappa)
heavy: not shown
light: B1 light
notes: homodimerized; also called Ho Ab G236_20W; GpH7-B3-03-20W/GpL16-k0
B49: GpH7-B3 variant E333_15Y/GpL16-k0 (antibody, human IgG1, kappa)
heavy: not shown
light: B1 light
notes: homodimerized; also called Ho Ab E333_15Y
B50: GpH7-B3 variant P238_15Y/GpL16-k0 (antibody, human IgG1, kappa)
heavy: not shown
light: B1 light
notes: homodimerized; also called Ho Ab P238_15Y
B51: GpH7-B3 variant I336_18N/GpL16-k0 (antibody, human IgG1, kappa)
heavy: not shown
light: B1 light
notes: homodimerized; also called Ho Ab I336_18N
B52: GpH7-B3 variant K326_16H/GpL16-k0 (antibody, human IgG1, kappa)
heavy: not shown
light: B1 light
notes: homodimerized; also called Ho Ab K326_16H
B53: GpH7-B3 variant L234_03V/GpL16-k0 (antibody, human IgG1, kappa)
heavy: not shown
light: B1 light
notes: homodimerized; also called Ho Ab L234_03V
B54: GpH7-B3 variant P271_04F/GpL16-k0 (antibody, human IgG1, kappa)
heavy: not shown
light: B1 light
notes: homodimerized; also called Ho Ab P271_04F
B55: GpH7-B3 variant E333_13S/GpL16-k0 (antibody, human IgG1, kappa)
heavy: not shown
light: B1 light
notes: homodimerized; also called Ho Ab E333_13S
B56: GpH7-B3 variant E333_12R/GpL16-k0 (antibody, human IgG1, kappa)
heavy: not shown
light: B1 light
notes: homodimerized; also called Ho Ab E333_12R

In the test the target is T1, FcγRIa (human, UniProt P12314 16-292).
T1 construct: extracellular domain; also called FcgRI; CD64
T1 sequence (P12314 16-292): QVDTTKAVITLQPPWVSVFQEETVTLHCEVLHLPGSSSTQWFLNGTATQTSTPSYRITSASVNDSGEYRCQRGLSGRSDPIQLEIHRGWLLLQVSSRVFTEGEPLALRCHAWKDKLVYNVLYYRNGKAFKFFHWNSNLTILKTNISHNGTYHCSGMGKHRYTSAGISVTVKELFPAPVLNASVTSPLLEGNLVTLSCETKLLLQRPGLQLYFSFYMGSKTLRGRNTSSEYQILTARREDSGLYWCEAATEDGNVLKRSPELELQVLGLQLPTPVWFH
The test is described as follows: SPR; vs GpH7-B3/GpL16-k0=100.
With B1, the Ho/Con_1a was 99.5 % of control.

For B2, the Ho/Con_1a is 106 % of control.

For the molecule B3, the Ho/Con_1a is 99.3 % of control.

For B4, the Ho/Con_1a is 104 % of control.

Consider B5, for which the Ho/Con_1a was 100 % of control.

Regarding B6, the Ho/Con_1a was 103 % of control.

On to B7, for which the Ho/Con_1a is 79.6 % of control.

As to B8, the Ho/Con_1a is 102 % of control.

In the case of B9, the Ho/Con_1a is 104 % of control.

For B10, the Ho/Con_1a is 96.5 % of control.

B11: the Ho/Con_1a was 107 % of control.

On to B12, for which the Ho/Con_1a was 100 % of control.

Consider B13, for which the Ho/Con_1a was 98.7 % of control.

For the molecule B14, the Ho/Con_1a was 98.6 % of control.

B15: the Ho/Con_1a was 99.9 % of control.

Consider B16, for which the Ho/Con_1a is 107 % of control.

In the case of B17, the Ho/Con_1a was 104 % of control.

On to B18, for which the Ho/Con_1a was 103 % of control.

In the case of B19, the Ho/Con_1a is 99.5 % of control.

On to B20, for which the Ho/Con_1a is 97.9 % of control.

For B21, the Ho/Con_1a was 104 % of control.

On to B22, for which the Ho/Con_1a was 92.4 % of control.

With B23, the Ho/Con_1a is 108 % of control.

In the case of B24, the Ho/Con_1a is 99.9 % of control.

Consider B25, for which the Ho/Con_1a was 102 % of control.

With B26, the Ho/Con_1a is 105 % of control.

With B27, the Ho/Con_1a was 102 % of control.

In the case of B28, the Ho/Con_1a was 106 % of control.

As for B29, the Ho/Con_1a was 103 % of control.

On to B30, for which the Ho/Con_1a was 99.2 % of control.

Regarding B31, the Ho/Con_1a was 105 % of control.

Consider B32, for which the Ho/Con_1a was 102 % of control.

Take B33: the Ho/Con_1a was 98.7 % of control.

With B34, the Ho/Con_1a was 93.5 % of control.

Consider B35, for which the Ho/Con_1a is 101 % of control.

Take B36: the Ho/Con_1a is 98.9 % of control.

Take B37: the Ho/Con_1a is 95.8 % of control.

Consider B38, for which the Ho/Con_1a is 104 % of control.

Turning to B39, the Ho/Con_1a was 93.2 % of control.

Regarding B40, the Ho/Con_1a is 105 % of control.

B41: the Ho/Con_1a was 106 % of control.

For B42, the Ho/Con_1a was 109 % of control.

On to B43, for which the Ho/Con_1a was 99.1 % of control.

B44: the Ho/Con_1a was 91.8 % of control.

Turning to B45, the Ho/Con_1a is 99 % of control.

On to B46, for which the Ho/Con_1a was 101 % of control.

Consider B47, for which the Ho/Con_1a is 100 % of control.

For B48, the Ho/Con_1a was 104 % of control.

B49: the Ho/Con_1a was 100 % of control.

For the molecule B50, the Ho/Con_1a is 99 % of control.

With B51, the Ho/Con_1a was 104 % of control.

As to B52, the Ho/Con_1a was 101 % of control.

Take B53: the Ho/Con_1a is 98.2 % of control.

Consider B54, for which the Ho/Con_1a is 100 % of control.

For the molecule B55, the Ho/Con_1a is 101 % of control.

Regarding B56, the Ho/Con_1a was 94.2 % of control.
